The text below walks through data of patent US20090264352A1 (published 2009).

This assay deals with T1, GLP-1 receptor (RINm5F cell membranes) (UniProt P32301 22-463, limits assumed).
T1 construct: whole, on cells; The receptor source is homogenized cell membranes, not intact cells
T1 sequence (looked up): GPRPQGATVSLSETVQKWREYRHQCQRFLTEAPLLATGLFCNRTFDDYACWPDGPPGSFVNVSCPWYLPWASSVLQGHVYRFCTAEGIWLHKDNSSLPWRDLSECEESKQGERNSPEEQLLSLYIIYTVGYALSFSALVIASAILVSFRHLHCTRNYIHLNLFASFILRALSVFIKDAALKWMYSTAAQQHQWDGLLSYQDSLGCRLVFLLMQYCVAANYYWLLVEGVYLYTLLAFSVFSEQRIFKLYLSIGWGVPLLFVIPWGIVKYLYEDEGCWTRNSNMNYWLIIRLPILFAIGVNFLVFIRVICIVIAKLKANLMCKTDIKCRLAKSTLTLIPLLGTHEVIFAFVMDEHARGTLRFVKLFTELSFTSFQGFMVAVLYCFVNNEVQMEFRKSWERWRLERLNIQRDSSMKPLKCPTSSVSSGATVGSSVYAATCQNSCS
Description: displacement of [125I]GLP-1 from RINm5F cell membranes, filtration and scintillation counting.

One may read the IC50 as the concentration at which inhibition is half-maximal.

Description: Reaction mixtures are filtered through glass filter pads presoaked with 0.3% PEI solution and rinsed with ice-cold phosphate buffered saline. Bound counts are determined using a scintillation counter. Binding affinities are calculated using GraphPad Prism [sequence] PRISM® software (GraphPad Software, Inc., San Diego, Calif.).

B1: GLP-1 (9-36) (peptide, UniProt P01275 100-127, looked up)
peptide: EGTFTSDVSSYLEGQAAKEFIAWLVKGR
notes: range 100-127; Test compound in the displacement assay
As to B1, the IC50 worked out at 65 nM.
